These results are taken from article PMC9976902, “Interaction of human HelQ with DNA polymerase delta halts DNA synthesis and stimulates DNA single-strand annealing” (Nucleic Acids Research, 2022).

Series [1] addresses T1, human DNA polymerase δ complex (PolD1-4) (human, UniProt P28340 1-1107; P49005 1-469; Q15054 1-466; Q9HCU8 1-107). In words: cell-based or functional assay.
The target of series [2] is T2, human Pol δ sub-unit POLD3, purified individually (human, UniProt Q15054 1-466).
T2 sequence (looked up): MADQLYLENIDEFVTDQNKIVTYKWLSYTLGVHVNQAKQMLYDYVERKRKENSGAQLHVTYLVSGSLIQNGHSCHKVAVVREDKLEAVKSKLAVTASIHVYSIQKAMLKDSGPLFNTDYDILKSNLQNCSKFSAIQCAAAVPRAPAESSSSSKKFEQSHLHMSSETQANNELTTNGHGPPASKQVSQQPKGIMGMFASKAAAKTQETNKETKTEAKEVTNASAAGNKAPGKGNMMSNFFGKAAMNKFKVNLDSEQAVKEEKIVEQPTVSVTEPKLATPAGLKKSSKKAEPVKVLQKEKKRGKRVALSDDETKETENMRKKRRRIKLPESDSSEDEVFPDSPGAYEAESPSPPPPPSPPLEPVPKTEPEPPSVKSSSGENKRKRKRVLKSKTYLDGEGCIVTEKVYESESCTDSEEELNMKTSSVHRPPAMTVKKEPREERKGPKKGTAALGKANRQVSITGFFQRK
In words: cell-based or functional assay.

In series [3] the target is T1, human DNA polymerase δ complex (PolD1-4).
A further series deals with T3, HelQ (human, UniProt Q8TDG4 1-1101).
T3 sequence: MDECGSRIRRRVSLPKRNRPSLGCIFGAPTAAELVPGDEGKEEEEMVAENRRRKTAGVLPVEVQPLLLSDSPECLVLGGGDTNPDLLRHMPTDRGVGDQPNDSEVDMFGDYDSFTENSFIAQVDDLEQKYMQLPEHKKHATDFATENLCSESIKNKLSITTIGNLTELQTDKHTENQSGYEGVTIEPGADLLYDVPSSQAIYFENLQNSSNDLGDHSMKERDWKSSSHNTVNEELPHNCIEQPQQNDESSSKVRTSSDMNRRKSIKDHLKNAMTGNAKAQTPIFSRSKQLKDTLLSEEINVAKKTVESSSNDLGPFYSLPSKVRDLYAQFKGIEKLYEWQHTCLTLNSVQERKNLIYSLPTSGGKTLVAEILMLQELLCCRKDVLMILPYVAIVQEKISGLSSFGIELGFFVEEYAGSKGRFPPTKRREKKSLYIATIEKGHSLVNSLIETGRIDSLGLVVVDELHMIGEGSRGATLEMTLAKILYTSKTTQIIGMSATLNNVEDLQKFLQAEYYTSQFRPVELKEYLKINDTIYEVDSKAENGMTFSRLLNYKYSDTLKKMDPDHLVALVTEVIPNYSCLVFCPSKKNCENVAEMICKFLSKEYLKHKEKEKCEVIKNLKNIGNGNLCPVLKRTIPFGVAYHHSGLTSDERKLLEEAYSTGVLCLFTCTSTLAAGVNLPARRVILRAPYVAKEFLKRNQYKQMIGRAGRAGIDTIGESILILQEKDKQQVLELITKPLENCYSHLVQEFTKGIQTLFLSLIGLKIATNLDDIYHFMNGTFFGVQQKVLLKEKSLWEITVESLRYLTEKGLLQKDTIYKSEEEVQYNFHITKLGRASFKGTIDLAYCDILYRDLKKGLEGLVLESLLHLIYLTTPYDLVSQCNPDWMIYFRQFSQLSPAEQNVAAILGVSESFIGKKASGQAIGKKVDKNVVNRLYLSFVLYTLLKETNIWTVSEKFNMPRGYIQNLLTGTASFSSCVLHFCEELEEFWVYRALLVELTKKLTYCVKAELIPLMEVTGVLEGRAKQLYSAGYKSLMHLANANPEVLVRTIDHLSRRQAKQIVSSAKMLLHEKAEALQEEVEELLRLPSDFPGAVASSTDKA
In words: EMSA; 50 mM EDTA; HelQ 100-400 nM, DNA 15 nM; EMSA: 20 mM Tris-HCl pH 7.5, 100 mg/ml BSA (so in the source), 7% glycerol, 25 mM DTT, 50 mM EDTA, 25 nM DNA (Methods; 15 nM in legend), 37 C 10 min, 5% TBE gel. As to conditions: protein: recombinant; label: Cy5 end label; fork 1:2-25 paired with 2:27-50; 3' tail 25 nt (strand 1), 5' tail 26 nt (strand 2), 1 nt 5' overhang on strand 1.

T1 sequence (P28340 whole entry, stated change not applied, chain 1 of 3): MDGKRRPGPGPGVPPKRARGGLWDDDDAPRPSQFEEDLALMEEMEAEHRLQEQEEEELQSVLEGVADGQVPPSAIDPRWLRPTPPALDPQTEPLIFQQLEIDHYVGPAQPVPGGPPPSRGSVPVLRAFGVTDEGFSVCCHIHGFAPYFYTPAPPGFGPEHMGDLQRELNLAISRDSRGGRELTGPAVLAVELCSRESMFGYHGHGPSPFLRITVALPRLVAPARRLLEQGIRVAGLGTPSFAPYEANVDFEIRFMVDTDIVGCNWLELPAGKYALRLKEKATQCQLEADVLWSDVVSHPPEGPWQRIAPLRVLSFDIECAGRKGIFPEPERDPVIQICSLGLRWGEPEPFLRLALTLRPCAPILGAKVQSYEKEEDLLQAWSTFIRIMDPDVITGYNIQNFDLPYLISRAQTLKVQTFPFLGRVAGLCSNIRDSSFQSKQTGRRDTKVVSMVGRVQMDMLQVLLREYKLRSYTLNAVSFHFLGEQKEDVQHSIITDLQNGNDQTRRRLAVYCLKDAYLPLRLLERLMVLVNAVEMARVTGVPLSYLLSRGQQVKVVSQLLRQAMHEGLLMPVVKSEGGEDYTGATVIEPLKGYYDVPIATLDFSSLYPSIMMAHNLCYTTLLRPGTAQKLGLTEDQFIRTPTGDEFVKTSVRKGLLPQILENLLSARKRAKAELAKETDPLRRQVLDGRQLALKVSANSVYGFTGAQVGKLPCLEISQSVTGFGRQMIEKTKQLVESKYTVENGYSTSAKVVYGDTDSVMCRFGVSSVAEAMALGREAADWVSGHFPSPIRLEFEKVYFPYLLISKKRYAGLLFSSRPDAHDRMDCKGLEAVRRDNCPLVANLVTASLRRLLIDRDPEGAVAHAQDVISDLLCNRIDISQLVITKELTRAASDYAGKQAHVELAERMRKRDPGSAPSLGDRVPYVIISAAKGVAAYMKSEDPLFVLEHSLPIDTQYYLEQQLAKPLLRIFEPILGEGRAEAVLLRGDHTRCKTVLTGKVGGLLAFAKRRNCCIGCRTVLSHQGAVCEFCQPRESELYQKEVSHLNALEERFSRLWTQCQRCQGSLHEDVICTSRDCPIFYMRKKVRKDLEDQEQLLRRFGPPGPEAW
T1 sequence (P49005 whole entry, stated change not applied, chain 2 of 3): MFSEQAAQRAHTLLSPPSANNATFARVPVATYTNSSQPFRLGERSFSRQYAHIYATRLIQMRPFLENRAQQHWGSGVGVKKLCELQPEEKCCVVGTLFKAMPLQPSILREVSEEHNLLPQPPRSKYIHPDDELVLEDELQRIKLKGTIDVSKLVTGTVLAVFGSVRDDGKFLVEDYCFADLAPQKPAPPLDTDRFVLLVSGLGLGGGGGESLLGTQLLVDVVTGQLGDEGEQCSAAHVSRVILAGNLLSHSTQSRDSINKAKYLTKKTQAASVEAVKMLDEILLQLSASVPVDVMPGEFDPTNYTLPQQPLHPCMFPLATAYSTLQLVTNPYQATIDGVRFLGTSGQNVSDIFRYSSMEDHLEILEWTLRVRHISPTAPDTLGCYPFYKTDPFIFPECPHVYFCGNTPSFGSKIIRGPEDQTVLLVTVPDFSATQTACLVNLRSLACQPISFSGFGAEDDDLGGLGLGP
T1 sequence (Q9HCU8 whole entry, stated change not applied, chain 4 of 3): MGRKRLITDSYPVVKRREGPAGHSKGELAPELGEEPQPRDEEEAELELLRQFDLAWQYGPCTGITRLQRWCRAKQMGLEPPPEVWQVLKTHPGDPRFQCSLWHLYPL

B1: Human HelQ (enzyme, UniProt Q8TDG4 1-1101, looked up)
chain: MDECGSRIRRRVSLPKRNRPSLGCIFGAPTAAELVPGDEGKEEEEMVAENRRRKTAGVLPVEVQPLLLSDSPECLVLGGGDTNPDLLRHMPTDRGVGDQPNDSEVDMFGDYDSFTENSFIAQVDDLEQKYMQLPEHKKHATDFATENLCSESIKNKLSITTIGNLTELQTDKHTENQSGYEGVTIEPGADLLYDVPSSQAIYFENLQNSSNDLGDHSMKERDWKSSSHNTVNEELPHNCIEQPQQNDESSSKVRTSSDMNRRKSIKDHLKNAMTGNAKAQTPIFSRSKQLKDTLLSEEINVAKKTVESSSNDLGPFYSLPSKVRDLYAQFKGIEKLYEWQHTCLTLNSVQERKNLIYSLPTSGGKTLVAEILMLQELLCCRKDVLMILPYVAIVQEKISGLSSFGIELGFFVEEYAGSKGRFPPTKRREKKSLYIATIEKGHSLVNSLIETGRIDSLGLVVVDELHMIGEGSRGATLEMTLAKILYTSKTTQIIGMSATLNNVEDLQKFLQAEYYTSQFRPVELKEYLKINDTIYEVDSKAENGMTFSRLLNYKYSDTLKKMDPDHLVALVTEVIPNYSCLVFCPSKKNCENVAEMICKFLSKEYLKHKEKEKCEVIKNLKNIGNGNLCPVLKRTIPFGVAYHHSGLTSDERKLLEEAYSTGVLCLFTCTSTLAAGVNLPARRVILRAPYVAKEFLKRNQYKQMIGRAGRAGIDTIGESILILQEKDKQQVLELITKPLENCYSHLVQEFTKGIQTLFLSLIGLKIATNLDDIYHFMNGTFFGVQQKVLLKEKSLWEITVESLRYLTEKGLLQKDTIYKSEEEVQYNFHITKLGRASFKGTIDLAYCDILYRDLKKGLEGLVLESLLHLIYLTTPYDLVSQCNPDWMIYFRQFSQLSPAEQNVAAILGVSESFIGKKASGQAIGKKVDKNVVNRLYLSFVLYTLLKETNIWTVSEKFNMPRGYIQNLLTGTASFSSCVLHFCEELEEFWVYRALLVELTKKLTYCVKAELIPLMEVTGVLEGRAKQLYSAGYKSLMHLANANPEVLVRTIDHLSRRQAKQIVSSAKMLLHEKAEALQEEVEELLRLPSDFPGAVASSTDKA
Turning to B1, the “FRET ratio of DNA single-strand annealing by HelQ (125 nM) with Pol δ complex (150 nM) added; 0.51 without Pol δ” value in series [1] is 0.76 FRET ratio. Further, in series [2], the “FRET efficiency of DNA single-strand annealing by HelQ (125 nM) with POLD3 alone (150 nM) added; 0.50 without POLD3, 0.07 with POLD3 alone” value is 0.87 FRET ratio.

B2: N-HelQ R51G/R52G/R53G (domain or fragment)
chain: MDECGSRIRRRVSLPKRNRPSLGCIFGAPTAAELVPGDEGKEEEEMVAENGGGKTAGVLPVEVQPLLLSDSPECLVLGGGDTNPDLLRHMPTDRGVGDQPNDSEVDMFGDYDSFTENSFIAQVDDLEQKYMQLPEHKKHATDFATENLCSESIKNKLSITTIGNLTELQTDKHTENQSGYEGVTIEPGADLLYDVPSSQAIYFENLQNSSNDLGDHSMKERDWKSSSHNTVNEELPHNCIE
B2 returned an end point of DNA synthesis by Pol δ (40 nM) pre-mixed with N-HelQ^RGx3 (5 nM), percent of DNA as product (68.8% uninhibited) in series [3] of 12.7%.

B3: forked DNA (MW12/MW14) (dsDNA)
DNA 1: GTCGGATCCTCTAGACAGCTCCATGATCACTGGCACTGGTAGAATTCGGC
DNA 2: CAACGTCATAGACGATTACATTGCTACATGGAGCTGTCTAGAGGATCCGA
For B3, in the series with HelQ, the binding result is recorded as “binds”.
